What was measured:
TaABI1 (wheat) [1] = biological target: TaABI1 (wheat)
AtABI1 (A. thaliana) = AtABI1 (A. thaliana) (UniProt P49597)
TaABI1 (wheat) [2] = biological target: TaABI1 (wheat); remark: listed apart in the source
AtPYL6 (with TaABI1) = biological target: T1, AtPYL6 (with TaABI1) (Arabidopsis thaliana, UniProt Q8S8E3); test: receptor-mediated PP2C inhibition, 4-methylumbelliferyl phosphate fluorescence; type: biochemical; conditions: ligand 0.1 uM unless otherwise noted, Mn2+, pH 7.9, 30 °C
T1 construct: gene PYL6; recombinant from E. coli, Ni-NTA enriched; the partner PP2C is from wheat; with Protein phosphatase 2C ABI1 (Triticum aestivum)
T1 sequence (Q8S8E3 1-215): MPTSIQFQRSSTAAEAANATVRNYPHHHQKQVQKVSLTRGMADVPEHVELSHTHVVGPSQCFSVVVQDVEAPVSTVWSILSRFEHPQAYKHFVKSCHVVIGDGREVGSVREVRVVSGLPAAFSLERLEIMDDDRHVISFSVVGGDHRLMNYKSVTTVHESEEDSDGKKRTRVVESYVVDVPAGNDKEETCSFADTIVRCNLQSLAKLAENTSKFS
T1 sequence (A5A6P8 1-479 partner): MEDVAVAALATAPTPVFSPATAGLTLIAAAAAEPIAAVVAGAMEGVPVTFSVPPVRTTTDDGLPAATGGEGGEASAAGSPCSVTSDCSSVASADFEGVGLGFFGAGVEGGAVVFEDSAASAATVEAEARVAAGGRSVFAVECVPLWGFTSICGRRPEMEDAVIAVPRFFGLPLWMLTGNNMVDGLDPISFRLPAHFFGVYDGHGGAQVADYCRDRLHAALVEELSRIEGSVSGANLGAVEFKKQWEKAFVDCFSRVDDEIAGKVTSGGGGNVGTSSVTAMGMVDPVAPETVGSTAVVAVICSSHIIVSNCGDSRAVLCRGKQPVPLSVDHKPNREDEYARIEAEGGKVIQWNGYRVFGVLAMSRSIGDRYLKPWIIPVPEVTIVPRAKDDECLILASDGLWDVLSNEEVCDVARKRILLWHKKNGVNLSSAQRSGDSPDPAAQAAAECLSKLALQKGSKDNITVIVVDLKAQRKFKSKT

[3] = biological target: T2, Bradi1g37810 (with Bradi2g41950) (Brachypodium distachyon, UniProt I1GXY5); test: as above; type: biochemical; conditions: ligand 0.1 uM unless otherwise noted, Mn2+, pH 7.9, 30 °C, n = 1 screen
T2 construct: gene LOC100840898; recombinant from E. coli, Ni-NTA enriched; receptor 196 residues; with Protein phosphatase 2C
T2 sequence (I1GXY5 1-196): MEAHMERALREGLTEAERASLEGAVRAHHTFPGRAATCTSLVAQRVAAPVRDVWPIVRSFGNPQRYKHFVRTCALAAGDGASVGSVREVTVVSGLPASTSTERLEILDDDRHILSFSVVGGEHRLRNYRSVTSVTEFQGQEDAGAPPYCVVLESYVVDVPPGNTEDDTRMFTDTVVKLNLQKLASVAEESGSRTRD

[4] = biological target: Bradi2g41950 (B. distachyon)

AtABI1 (A. thaliana), sequence (P49597 whole entry): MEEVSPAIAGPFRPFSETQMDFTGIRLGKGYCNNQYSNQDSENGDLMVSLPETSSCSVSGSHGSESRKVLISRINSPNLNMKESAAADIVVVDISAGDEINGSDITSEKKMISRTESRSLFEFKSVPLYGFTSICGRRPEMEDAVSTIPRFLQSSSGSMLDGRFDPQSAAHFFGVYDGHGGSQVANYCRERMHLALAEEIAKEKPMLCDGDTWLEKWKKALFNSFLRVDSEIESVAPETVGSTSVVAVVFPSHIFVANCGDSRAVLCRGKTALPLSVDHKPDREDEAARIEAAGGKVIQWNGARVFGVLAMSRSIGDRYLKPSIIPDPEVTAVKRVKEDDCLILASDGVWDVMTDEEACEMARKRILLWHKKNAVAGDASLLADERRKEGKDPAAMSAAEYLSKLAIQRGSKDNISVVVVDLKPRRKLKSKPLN

With Ta_PYL2DS_FL (receptor) the TaABI1 phosphatase activity (4-methylumbelliferyl phosphate) with the receptor, on addition of ABA (Figure B in S2 File) (% reduction of phosphatase activity) (TaABI1 (wheat) [1]) was 90, the PP2C phosphatase activity, receptor to PP2C 10:1, with 0.1 uM PBI352 (Fig 2B) (% decrease in PP2C activity) (AtABI1 (A. thaliana)) was 30 and the PP2C phosphatase activity, receptor to PP2C 10:1, with 0.1 uM PBI354 (Fig 2C) (% decrease in PP2C activity) (AtABI1 (A. thaliana)) was 0. The PP2C phosphatase activity, receptor to PP2C 10:1, with 0.1 uM PBI352 (Fig 2B) (% decrease in PP2C activity) (TaABI1 (wheat) [2]) was 30 and the PP2C phosphatase activity, receptor to PP2C 10:1, with 0.1 uM PBI354 (Fig 2C) (% decrease in PP2C activity) (TaABI1 (wheat) [2]) was 0.
For CO[C@]1(/C=C/C(C)=C\C(=O)O)C(C)=CC(=O)CC1(C)C [PBI352], the “% inhibition of PP2C” value (AtPYL6 (with TaABI1)) was “the three A. thaliana receptors against the Ta_ABI1 PP2C were plotted” and the “% inhibition of PP2C” value [3] was “subfamily III receptor Bd1g37810 is similar to that of the subfamily II, Ta_PYL2DS_FL”.
Bradi3g09580 (receptor) showed a Bradi2g41950 phosphatase activity with receptor and PBI352 (Figure C in S2 File; n = 1) (% inhibition of PP2C) [4] of 90.
Work on Bradi2g32250 (receptor) yielded a Bradi2g41950 phosphatase activity with receptor and PBI352 (Figure C in S2 File; n = 1) (% inhibition of PP2C) [4] of 90.

— paper PMC5068739 (PLoS ONE, 2016)
